Data on five compounds can be found in US20210087250A1, “PHARMACEUTICAL COMPOSITIONS FOR THE TRANSMUCOSAL DELIVERY OF THERAPEUTIC PEPTIDES AND PROTEINS” (CYPRUMED GMBH, priority 2018, published 2021).

Series [1] has as its system human nasal cell line RPMI 2650. The series can be described thus: Permeation of semaglutide through human nasal cells. Conditions: 0.5 mg/ml semaglutide in KRB with 5% arginine HCl versus KRB only. Format: in vitro ADME. As for the experimental part:
All permeation studies were performed with RPMI 2650 models after 3 weeks of cultivation. Furthermore, the whole equipment was pre-warmed to 37° C. All steps were performed at 37° C. Prior to permeation, TEER values were measured using EVOM® combined with Endohm® Chamber from World Precision Instruments (WPI, Sarasota, Fla., US).
RPMI models were incubated for 60 min in KRB. Meanwhile sample solution containing excipients and active pharmaceutical ingredients were prepared. Subsequent to the incubation period, TEER values were determined again.
Before permeation, the KRB was removed from both sides of the RPMI models and 1200 μL KRB as acceptor volume were added. Then, 200 μL of the formulations (containing 0.5 mg/ml of Semaglutide each; reference formulation in KRB only, sample formulation in KRB containing 5% of arginine HCl) were applied to the apical surface of each RPMI model. With this step the permeation time was started. After two hours of exposition the acceptor was entirely removed, transferred to Eppendorf tubes and replaced by 1200 μL pre-warmed KRB. Four hours after starting the experiment the total amount of the acceptor was withdrawn again. During permeation the cell culture plates were shaken horizontally with 200 U/min at 37° C.

The subject of series [2] is RPMI 2650 cells. The series can be described thus: CellTiter 96 AQueous One Solution cell proliferation cytotoxicity assay (MTS). Format: cell-based, human. The conditions noted are these: 2.5% and 5.0% (m/V) in KRB, up to 120 min. As for the experimental part: CellTiter 96® AQueous One Solution Cell proliferation Assay from Promega (Mannheim, Germany) is a colorimetric method for determining the number of viable cells in a cytotoxicity assay. The MTS tetrazolium compound is bioreduced by viable cells in a colored formazan product. The quantity of formazan is directly proportional to the number of living cells and can be measured by absorbance at 490 nm. This assay was performed to determinate cytotoxic effects of Arginine HCl in the concentrations of 2.5% and 5.0% (m/V) on RPMI 2650 cells.
RPMI 2650 cells were seeded onto a 96-well tissue culture test plate at a density of 60,000 cells per well for 24 h. Arginine HCl was dissolved in KRB. Medium was removed from the cells and replaced by 100 μL excipient solutions per well. Cells were incubated with excipient solutions for 0 min, 15 min, 30 min, 60 min and 120 min. Furthermore, cells were incubated with KRB, 1.0% Triton-X solution (V/V) for the same incubation periods as negative and positive controls, respectively. Bacitracin (BAC) served as reference.
The CellTiter 96® AQueous One Solution Cell proliferation Assay was carried out following the manufacturer's protocol. […]
After the incubation period the samples were analyzed immediately. Absorbance was recorded at 490 nm and measured by using a microplate reader Infinite® M Plex (Tecan, Switzerland).

For series [3], the system named is MDCK cells. The series can be described thus: Transepithelial electrical resistance (TEER) measurement. In kind it is cell-based. The conditions noted are these: 2.5% and 5%. As for the experimental part:
The cellZscope from nanoAnalytics (Munster, Germany) was used for continuous evaluation of TEER as a surrogate parameter of tight junction functionality. MDCK cells were grown on 1.12 cm^2, 1.0 μm transparent filter inserts (ThinCerts™, Greiner Bio-One, Frickenhausen, Germany) with a seeding density of 100,000 cells per well. The medium was changed at cultivation days 3, 4 and 5. TEER measurements were performed on day 5 when cells reached a resistance of approximately 3,500 Ω·cm^2 starting with the replacement of the growth medium by an equivalent volume of KRB, pH 7.4 (500 μL apical, 1,500 μL basolateral) and cell incubation for 60 min. After this preincubation, 250 μL of KRB was removed from the insert, and the same volume of double-concentrated sample solution (Arginine HCl in KRB) was added to the 250 μL KRB inside the insert to reach the desired concentration. Afterwards, impedance measurements were performed for 180 min with a frequency range of 1 Hz to 100 kHz at 37° C. and 5% CO2 inside the incubator.
Subsequently, the cells were carefully washed with fresh KRB and incubated in medium, and TEER was monitored up to 24 h in 30 min time intervals after the start of the experiment to evaluate TEER recovery. The results (shown in FIG. 7) are given as the relative TEER reduction, defined as the percentage change of the starting value corrected by the baseline value.

Series [4] deals with desmopressin.
In series [5] the target is desmopressin. This is another data set of the same source.
The target in series [6] is T1, PTH(1-34) (Homo sapiens (Human)) (UniProt P01270).
T1 sequence (peptide): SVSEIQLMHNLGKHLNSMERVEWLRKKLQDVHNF

Series [7] has as its target T1, PTH(1-34) (Homo sapiens (Human)). The source holds these as a separate data set.
Series [8] concerns the target adalimumab.
Series [9] deals with T1, PTH(1-34) (Homo sapiens (Human)). This is another data set of the same source.

Like-named read-outs stand apart in the source and are kept apart here.

Turning to `Cl.N=C(N)NCCC[C@H](N)C(=O)O` [arginine HCl, arginine hydrochloride], the “permeation of semaglutide across human nasal cells” value in series [1] was “improves the permeation of semaglutide”. The cell viability result in [2] is listed as “Only a minor decrease in cell viability”. Moreover, the TEER result in series [3] (180 min) is “strong decrease in TEER”. Moreover, in series [3] (up to 24 h), the “reversibility of tight junction opening (TEER recovery)” value is listed as “fully reversible”.

The compound chymotrypsin (enzyme) came in with an Intact desmopressin after 5 hours incubation (%) in [4] of 7%.

For the compound pancreatin (pool or library), the Peptide recovery in series [5] was 20%. This compound also showed a % intact PTH(1-34) in [6] of 0%.

For the compound pepsin (enzyme), the Intact PTH(1-34) in series [7] was 0%.

On to trypsin (enzyme), for which the % intact Adalimumab in series [8] was found to be 82%. This compound displayed an Intact PTH(1-34) in series [9] of 0%.
